Data on one molecule can be found in PMC4429956.

Assay [1] deals with fluorescent H3K4me3 peptide. As to the kind of experiment: fluorescence polarisation; increasing concentrations of TAF3 PHD finger with fluorescent H3K4me3 peptide, with a 5-fold molar excess of PI5P; apparent KD.
Assay [2] has as its target fluorescent H3K4me3 peptide. As to the kind of experiment: fluorescence polarisation; increasing concentrations of TAF3 PHD finger with fluorescent H3K4me3 peptide, no PI; apparent KD.

B1: GST-TAF3 PHD finger, wild type (domain or fragment)
chain: IWICPGCNKPDDGSPMIGCDDCDDWYHWPCVGIMTAPPEEMQWFCPKCANKKKDKKHKKRKHRAH
modifications: not checked
On to B1, for which the Kd was 3.5 µM in assay [1] and 1 µM in assay [2].
